Results as given in US20090060919A1 (AstraZeneca / MedImmune, published 2009).
Changes are numbered by the printed parent chain.

B1: Antibody 21 IgG (antibody, V domains shown)
VH: QVQLVQSGAEVKKPGATVKLSCKVYGYIFTDYNIYWVRQAPGKGLEWMGLIDPDNGETFYAEKFQGRATMTADTSSDRAYMELTSLTFEDTATYYCATVTLKSAKGGYDYWGRGTLVTVSS
VL: QSVLTQPPSVSGAPGQRVTISCTGSSSNIGAGYDVHWYQQLPGTAPKLLIYDNFNRPSGVPDRFSGSKSGTSASLAIIGLQTEDEADYYCQSYDSSSQLSPFGTGTKLTVL
B2: Antibody 18 IgG (antibody, V domains shown)
VH: B1 VH with T100L, K102R
VL: B1 VL with S96H, S97L
notes: Whole human IgG (section 1.4: IgG1)
B3: Antibody 26 IgG (antibody, V domains shown)
VH: B1 VH with T100S, S103E
VL: B1 VL with S96A, Q98R, L99H, S100A
B4: Antibody 22 IgG (antibody, V domains shown)
VH: B1 VH
VL: B1 VL with S97G, Q98G, L99Y, S100A
B5: Antibody 12 IgG (antibody, V domains shown)
VH: B1 VH with T100M, L101G, S103W, A104I
VL: B1 VL with S97I, Q98D, L99H
notes: as for B2
B6: Antibody 4 IgG (antibody, V domains shown)
VH: B1 VH with T100M, L101G, S103W, A104I
VL: B1 VL with S96R, S97G, Q98G, L99H
notes: as for B2
B7: Antibody 23 IgG (antibody, V domains shown)
VH: B1 VH with T100M, L101G, S103W, A104I
VL: B1 VL with S96H, S97H, Q98L, L99Y, P101S
notes: as for B2
B8: Antibody 19 IgG (antibody, V domains shown)
VH: B1 VH with T100M, L101G, S103W, A104I
VL: B1 VL with S96T, S97L, Q98S, L99H
notes: as for B2
B9: Antibody 13 IgG (antibody, V domains shown)
VH: B1 VH with T100M, L101G, S103W, A104I
VL: B1 VL with S96N, S97I, Q98L, L99Y
notes: as for B2
B10: Antibody 6 IgG (antibody, V domains shown)
VH: B1 VH with T100M, L101G, S103W, A104I
VL: B1 VL with S96T, S97M, Q98R, L99H, S100G
notes: as for B2
B11: Antibody 16 IgG (antibody, V domains shown)
VH: B1 VH with T100S
VL: B1 VL with S96R, S97H, Q98H, L99H, S100A
notes: as for B2
B12: Antibody 28 IgG (antibody, V domains shown)
VH: B1 VH with T100M, L101G, S103W, A104I
VL: B1 VL with Q98L, L99H
notes: as for B2
B13: Antibody 5 IgG (antibody, V domains shown)
VH: B1 VH with T100M, L101G, S103W, A104I
VL: B1 VL with S96T, S97K, Q98H, L99T
notes: as for B2
B14: Antibody 20 IgG (antibody, V domains shown)
VH: B1 VH with T100M, L101G, S103W, A104I
VL: B1 VL with S97T, Q98S, L99S
notes: as for B2
B15: Antibody 3 scFv (scFv, V domains shown)
VH: B1 VH with T100M, L101G, S103W, A104I
VL: B1 VL with S96T, S97F, Q98N, L99H, S100A
notes: Purified scFv, non-germlined; not shown: scFv linker and any tags; the libraries are only cited to Vaughan et al. 1996
B16: Antibody 26 scFv (scFv, V domains shown)
VH: B1 VH with T100S, S103E
VL: B1 VL with S96A, Q98R, L99H, S100A
notes: Purified scFv, non-germlined
B17: Antibody 21 scFv (scFv, V domains shown)
VH: B1 VH
VL: B1 VL
notes: Purified scFv, non-germlined
B18: Antibody 23 scFv (scFv, V domains shown)
VH: B1 VH with T100M, L101G, S103W, A104I
VL: B1 VL with S96H, S97H, Q98L, L99Y, P101S
notes: Purified scFv, non-germlined
B19: Antibody 28 scFv (scFv, V domains shown)
VH: B1 VH with T100M, L101G, S103W, A104I
VL: B1 VL with Q98L, L99H
notes: Purified scFv, non-germlined
B20: Antibody 17 scFv (scFv, V domains shown)
VH: B1 VH
VL: B1 VL with S96Q, Q98S, L99T
notes: Purified scFv, non-germlined
B21: Antibody 2 scFv (scFv, V domains shown)
VH: B1 VH with T100S, K102R
VL: B1 VL with S97L, Q98S, L99G, P101L
notes: as for B15
B22: Antibody 10 scFv (scFv, V domains shown)
VH: B1 VH with T100S, K102R, S103A
VL: B1 VL with S96E, S97Q, Q98E, S100A
notes: Purified scFv, non-germlined
B23: Antibody 7 scFv (scFv, V domains shown)
VH: B1 VH
VL: B1 VL with S96D, S97R, Q98R, L99N
notes: Purified scFv, non-germlined
B24: Antibody 15 scFv (scFv, V domains shown)
VH: B1 VH with S103T
VL: B1 VL with S96H, S97K, Q98G, L99Y, S100G, P101G
notes: Purified scFv, non-germlined
B25: Antibody 25 scFv (scFv, V domains shown)
VH: B1 VH
VL: B1 VL with S96N, S97H, Q98K, L99T
notes: Purified scFv, non-germlined
B26: Antibody 22 scFv (scFv, V domains shown)
VH: B1 VH
VL: B1 VL with S97G, Q98G, L99Y, S100A
notes: Purified scFv, non-germlined
B27: Antibody 27 scFv (scFv, V domains shown)
VH: B1 VH with T100S, S103E
VL: B1 VL with S96P, S97T, L99T
notes: Purified scFv, non-germlined
B28: Antibody 14 scFv (scFv, V domains shown)
VH: B1 VH with T100M, L101G, S103W, A104I
VL: B1 VL with S96H, S97H, Q98R, L99H
notes: Purified scFv, non-germlined
B29: Antibody 9 scFv (scFv, V domains shown)
VH: B1 VH with K102R
VL: B1 VL with S96P, Q98S, L99T
notes: Purified scFv, non-germlined
B30: Antibody 24 scFv (scFv, V domains shown)
VH: B1 VH with S103T
VL: B1 VL with S96R, S97N, Q98G, L99Y, S100G, P101G
notes: Purified scFv, non-germlined
B31: Antibody 18 scFv (scFv, V domains shown)
VH: B1 VH with T100L, K102R
VL: B1 VL with S96H, S97L
notes: Purified scFv, non-germlined
B32: Antibody 1 scFv (scFv, V domains shown)
VH: B1 VH with T100L, L101H, K102R, S103R, A104L
VL: B1 VL with S97L, Q98S, L99G, P101L
notes: Purified scFv, non-germlined; also called parent; not shown: scFv linker and any tags; the libraries are only cited to Vaughan et al. 1996
B33: Antibody 5 scFv (scFv, V domains shown)
VH: B1 VH with T100M, L101G, S103W, A104I
VL: B1 VL with S96T, S97K, Q98H, L99T
notes: as for B15
B34: Antibody 16 scFv (scFv, V domains shown)
VH: B1 VH with T100S
VL: B1 VL with S96R, S97H, Q98H, L99H, S100A
notes: Purified scFv, non-germlined
B35: Antibody 11 scFv (scFv, V domains shown)
VH: B1 VH with T100M, L101G, S103W, A104I
VL: B1 VL with S96P, S97T, Q98L, L99T
notes: Purified scFv, non-germlined
B36: Antibody 8 scFv (scFv, V domains shown)
VH: B1 VH with T100L, L101G, K102R, S103W, A104I
VL: B1 VL with S96P, S97T, Q98H, L99T
notes: Purified scFv, non-germlined
B37: Antibody 4 scFv (scFv, V domains shown)
VH: B1 VH with T100M, L101G, S103W, A104I
VL: B1 VL with S96R, S97G, Q98G, L99H
notes: as for B15
B38: Antibody 13 scFv (scFv, V domains shown)
VH: B1 VH with T100M, L101G, S103W, A104I
VL: B1 VL with S96N, S97I, Q98L, L99Y
notes: Purified scFv, non-germlined
B39: Antibody 6 scFv (scFv, V domains shown)
VH: B1 VH with T100M, L101G, S103W, A104I
VL: B1 VL with S96T, S97M, Q98R, L99H, S100G
notes: as for B15
B40: Antibody 12 scFv (scFv, V domains shown)
VH: B1 VH with T100M, L101G, S103W, A104I
VL: B1 VL with S97I, Q98D, L99H
notes: Purified scFv, non-germlined

biological target: T1, human IgEλ (U266 derived) (human, UniProt P01854-1 1-428); assay: cell-based or functional assay
T1 sequence (P01854 other isoform, or with tags, fused parts or gaps): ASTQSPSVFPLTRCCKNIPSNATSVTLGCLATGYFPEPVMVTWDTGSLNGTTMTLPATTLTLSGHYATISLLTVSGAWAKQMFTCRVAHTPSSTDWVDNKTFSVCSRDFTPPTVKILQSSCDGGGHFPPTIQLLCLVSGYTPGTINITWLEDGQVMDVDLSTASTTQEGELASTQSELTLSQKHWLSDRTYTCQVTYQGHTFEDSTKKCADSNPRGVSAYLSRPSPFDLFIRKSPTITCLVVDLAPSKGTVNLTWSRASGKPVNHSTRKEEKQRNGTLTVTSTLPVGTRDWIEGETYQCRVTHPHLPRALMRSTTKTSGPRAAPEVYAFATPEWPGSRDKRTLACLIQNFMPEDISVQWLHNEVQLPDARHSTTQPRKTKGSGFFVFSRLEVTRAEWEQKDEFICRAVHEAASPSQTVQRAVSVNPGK

Row | Binder | RBL-ER51 calcium signalling IC50 (Geomean), Human IgE
1 | B1 | 0.306 nM
2 | B2 | 0.532 nM
3 | B3 | 0.398 nM
4 | B4 | 0.262 nM
5 | B5 | 0.134 nM
6 | B6 | 0.088 nM
7 | B7 | 0.109 nM
8 | B8 | 0.095 nM
9 | B9 | 0.088 nM
10 | B10 | 0.096 nM
11 | B11 | 0.292 nM
12 | B12 | 0.099 nM
13 | B13 | 0.091 nM
14 | B14 | 0.191 nM

biological target: recombinant chimaeric cynomolgus IgE (D12 variable regions, cynomolgus IgE constant region) (cynomolgus monkey); assay: cell-based or functional assay
Sequence (heavy, as listed by the source limits assumed, chain 1 of 2): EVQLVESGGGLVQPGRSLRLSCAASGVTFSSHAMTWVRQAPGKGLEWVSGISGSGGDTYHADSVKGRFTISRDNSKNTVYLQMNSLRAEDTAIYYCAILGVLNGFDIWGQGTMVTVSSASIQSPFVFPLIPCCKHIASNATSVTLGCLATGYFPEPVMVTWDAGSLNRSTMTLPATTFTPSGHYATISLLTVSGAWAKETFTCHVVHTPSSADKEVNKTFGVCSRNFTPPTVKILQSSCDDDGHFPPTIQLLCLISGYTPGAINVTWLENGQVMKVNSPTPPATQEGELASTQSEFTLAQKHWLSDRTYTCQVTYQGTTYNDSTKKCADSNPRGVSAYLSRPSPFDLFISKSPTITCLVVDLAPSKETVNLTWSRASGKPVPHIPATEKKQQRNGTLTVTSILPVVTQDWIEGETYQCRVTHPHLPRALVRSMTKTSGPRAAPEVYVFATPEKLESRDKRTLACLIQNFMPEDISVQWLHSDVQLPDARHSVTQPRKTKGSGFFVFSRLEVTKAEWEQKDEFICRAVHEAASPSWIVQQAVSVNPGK
Sequence (light, as listed by the source limits assumed, chain 2 of 2): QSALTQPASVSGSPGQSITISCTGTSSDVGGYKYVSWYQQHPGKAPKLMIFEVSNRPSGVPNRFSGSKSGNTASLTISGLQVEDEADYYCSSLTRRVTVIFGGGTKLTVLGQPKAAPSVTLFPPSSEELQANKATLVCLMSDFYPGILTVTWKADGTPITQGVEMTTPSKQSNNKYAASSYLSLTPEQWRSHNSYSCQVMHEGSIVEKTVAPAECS

Row | Binder | RBL-ER51 calcium signalling IC50 (Geomean), Cynomolgus IgE
15 | B1 | 3.58 nM
16 | B3 | 5.1 nM
17 | B4 | 2.66 nM

biological target: T1, human IgEλ (U266 derived); assay: HTRF competition: scFv against Eu-cryptate human IgE binding to human FcεRI-Fc

Row | Binder | IC50
18 | B15 | 5 nM
19 | B16 | 12 nM
20 | B17 | 6 nM
21 | B18 | 1 nM
22 | B19 | 1 nM
23 | B20 | 6 nM
24 | B21 | 28 nM
25 | B22 | 10 nM
26 | B23 | 9 nM
27 | B24 | 7 nM
28 | B25 | 8 nM
29 | B26 | 6 nM
30 | B27 | 9 nM
31 | B28 | 8 nM
32 | B29 | 9 nM
33 | B30 | 9 nM
34 | B31 | 11 nM

biological target: T1, human IgEλ (U266 derived); assay: SPR (BIAcore 2000): IgG captured on protein G', IgE as analyte, bivalent analyte model; geomean
Procedure: In brief, Protein G′ (Sigma Aldrich, P4689) was covalently coupled to the surface of a CM5 sensor chip using standard amine coupling reagents according to manufacturer's instructions (BIAcore). […] The resulting sensorgrams were evaluated using BIA evaluation 3.1 software and fitted to a bivalent analyte model, to provide relative binding data.

Row | Binder | Kd
35 | B2 | 8 nM
36 | B5 | 2.3 nM
37 | B6 | 2.1 nM
38 | B7 | 2.7 nM
39 | B8 | 2.5 nM
40 | B9 | 2.3 nM
41 | B10 | 2.1 nM
42 | B11 | 4.6 nM
43 | B12 | 3.2 nM
44 | B13 | 2.4 nM
45 | B14 | 3.3 nM

biological target: T1, human IgEλ (U266 derived); assay: HTRF competition: scFv against Eu-cryptate human IgE binding to human FcεRI-Fc; geomean (95% CI)

Row | Binder | IC50
46 | B32 | 475 nM
47 | B33 | 3 nM
48 | B34 | 5 nM
49 | B35 | 2 nM
50 | B36 | 5 nM
51 | B37 | 2 nM

biological target: T1, human IgEλ (U266 derived); assay: HTRF competition: scFv against Eu-cryptate human IgE binding to human FcεRI-Fc; geomean

Row | Binder | IC50
52 | B38 | 2 nM
53 | B39 | 3 nM
54 | B40 | 3 nM
